Where a chain is given by its changes, count along the chain named. Names may count otherwise.
Key:
[1] = biological target: T1, coil C-mCherry-6xHis fusion protein (human); test: ITC, C′-GFP injected into C-mCherry, PBS pH 7.5, 25 °C
T1 construct: also called mCherry-C; wild-type mCherry-C; not shown: mCherry red fluorescent protein fused to the C-terminal of coil C
T1 chain: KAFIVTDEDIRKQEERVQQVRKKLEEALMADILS
Protocol: ITC analysis was conducted using MicroCal Auto-iTC200 (Malvern Panalytical) at the Korea Basic Science Institute (Ochang, Korea). […] For titration, 2 μL of C′-GFP was injected to C-mCherry 19 times at 25° C. for 4 seconds, with 150-seconds intervals, and data were analyzed using the MicroCal Origin 7.0 software. N is the stoichiometric number, KD is the binding affinity, and AH and AS are changes in enthalpy and binding entropy, respectively.

[2] = biological target: T2, C_Ala27 (A27C) coil C mutant fused to mCherry (human); test: FRET between GFP and mCherry, equimolar mixture, 4 µM, plate reader
T2 construct: also called C half of Ala27-Ile8
T2 chain: T1 chain with A27C
Protocol: (§1) A sample of wild-type GFP alone or a mixture of C′-GFP/C-mCherry, Ala27-lle8 and Thr6-Arg29 in equimolar quantities was diluted appropriately with phosphate-buffered saline (PBS) to make a total volume of 200 μL and a concentration of 4 μM. The sample was transferred to a 96-well plate and the absorbance at 510 nm 488 nm and luminescence (fluorescence) of each well were measured with the Synergy H1 hybrid multi-mode microplate reader (BioTek). After calculating the luminescence (A) per unit absorbance of the wild-type GFP alone sample and the luminescence (B) per unit absorbance of each sample, fluorescence resonance energy transfer efficiency was calculated by the following equation.

[3] = biological target: T3, C_Thr6 (T6C) coil C mutant fused to mCherry (human); test: as above
T3 construct: also called C half of Thr6-Arg29
T3 chain: T1 chain with T6C
Protocol: as §1

B1: coil C′-GFP-6xHis fusion protein (other)
chain: PEERERMIKQLKEELRLEEAKLVLLKKLRQSQIQKEATAQK
notes: also called GFP-C′; wild-type GFP-C′; not shown: green fluorescent protein (GFP) fused to the C-terminal of coil C′
- Kd [1]: 10.7 nM
- ΔH [1]: -2.6 kcal/mol
- ΔS [1]: -52.4 cal/mol/deg

Binder: PEERERMCKQLKEELRLEEAKLVLLKKLRQSQIQKEATAQK (other, not shown: large carriers, not fully specified, also called 18C; C′ half of Ala27-Ile8) [C′_Ile8 (I8C) coil C′ mutant fused to GFP]
- FRET efficiency, fold against wild-type (GFP-C′+mCherry-C) [2]: ≥ 2 fold

Binder: PEERERMIKQLKEELRLEEAKLVLLKKLCQSQIQKEATAQK (other, not shown: large carriers, also called C′ half of Thr6-Arg29) [C′_Arg29 (R29C) coil C′ mutant fused to GFP]
- FRET efficiency, fold against wild-type (GFP-C′+mCherry-C) [3]: ≥ 2 fold
